Measurements: paper PMC4490337, “Revisiting the intraperoxisomal pathway of mammalian PEX7” (Scientific Reports, 2015)

B1: radiolabeled pre-phytanoyl-CoA hydroxylase (35S-prePHYH) (natural protein, human, UniProt O14832 1-338, looked up)
chain: MEQLRAAARLQIVLGHLGRPSAGAVVAHPTSGTISSASFHPQQFQYTLDNNVLTLEQRKFYEENGFLVIKNLVPDADIQRFRNEFEKICRKEVKPLGLTVMRDVTISKSEYAPSEKMITKVQDFQEDKELFRYCTLPEILKYVECFTGPNIMAMHTMLINKPPDSGKKTSRHPLHQDLHYFPFRPSDLIVCAWTAMEHISRNNGCLVVLPGTHKGSLKPHDYPKWEGGVNKMFHGIQDYEENKARVHLVMEKGDTVFFHPLLIHGSGQNKTQGFRKAISCHFASADCHYIDVKGTSQENIEKEVVGIAHKFFGAENSVNLKDIWMFRARLVKGERTNL
modifications: [35S]methionine label
notes: human phytanoyl-CoA hydroxylase, precursor form with the PTS2 (prePHYH); cDNA amplified with primers from the start to the stop codon and cloned into pGEM4 (pGEM4-prePHYH); also called radiolabeled prePHYH; source: in vitro translated (TNT T7 quick coupled kit, rabbit reticulocyte lysate), not purified
B2: ΔC1PEX5L, recombinant protein comprising amino acid residues 1-324 of the large isoform of human PEX5 (domain or fragment)
chain: not shown

How the values were obtained:
[1] = molecular target: T1, PEX7 (in vitro synthesized) (human, UniProt O00628 1-323, unlabeled in the native-PAGE analyses; [35S]methionine label in the import/export assays); assay: native gel or EMSA; chase of the pre-assembled trimeric ΔC1PEX5L-PEX7-35S-prePHYH complex with excess recombinant prePHYH (100 ng) at 23 °C, aliquots over 8 h; band intensity against time; conditions: partners not purified
T1 construct: also called cold PEX7; 35S-PEX7; source: in vitro translated (TNT T7 quick coupled kit, rabbit reticulocyte lysate), not purified
T1 sequence (looked up): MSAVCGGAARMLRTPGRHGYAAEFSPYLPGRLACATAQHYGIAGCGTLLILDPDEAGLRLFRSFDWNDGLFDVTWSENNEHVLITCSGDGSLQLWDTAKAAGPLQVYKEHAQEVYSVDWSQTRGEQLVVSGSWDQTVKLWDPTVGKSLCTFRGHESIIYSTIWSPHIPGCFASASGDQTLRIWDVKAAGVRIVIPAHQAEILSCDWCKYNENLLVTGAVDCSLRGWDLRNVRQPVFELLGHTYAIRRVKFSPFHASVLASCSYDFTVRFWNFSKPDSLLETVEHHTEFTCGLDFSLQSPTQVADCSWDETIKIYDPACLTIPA

[2] = molecular target: T1, PEX7 (in vitro synthesized); assay: cell-based or functional assay

Row | Binder | half-life of prePHYH in the trimeric complex (with m3) [1] | amount of 35S-labeled PEX7 exported from peroxisomes in 15 min after pre-incubation with ΔC1PEX5L, against pre-incubation with export-incompetent ΔC1PEX5L(C11A) [2]
1 | B1 | 3.06 h | –
2 | B2 | – | ~2 fold
